Common to all, as to assay: cell-based or functional assay
The target of experiment [1] is HIV-1 Env of strain CAP45.2.00.G3 (HIV-1).
The target in experiment [2] is HIV-1 Env of strain SC422661.8 (HIV-1).
The target in experiment [3] is HIV-1 Env of strain TRO.11 (HIV-1).
Experiment [4] addresses HIV-1 Env of strain CAP210.2.00.E8 (HIV-1).
The target of experiment [5] is HIV-1 Env of strain AC10.0.29 (HIV-1).
The target of experiment [6] is HIV-1 strain CAP210.2.00.E8 envelope (gp120) (HIV-1).
Experiment [7] addresses HIV-1 strain 1056_10_TA11_1826 envelope (gp120) (HIV-1).
Experiment [8] addresses HIV-1 Env of strain SC422661.8 (HIV-1). The source holds these as a separate data set.
Experiment [9] concerns the target HIV-1 Env of strain T255-34 (HIV-1).
Experiment [10] deals with HIV-1 Env of strain Q461.e2 (HIV-1).
The target of experiment [11] is HIV-1 strain 89-F1_2_25 envelope (gp120) (HIV-1).
Experiment [12] has as its target HIV-1 Env of strain AC10.0.29 (HIV-1). The source holds these as a separate data set.
The target in experiment [13] is HIV-1 strain C3347.c11 envelope (gp120) (HIV-1).
Experiment [14] has as its target HIV-1 strain CAP45.2.00.G3 envelope (gp120) (HIV-1).
For experiment [15], the target named is HIV-1 strain T255-34 envelope (gp120) (HIV-1).
Experiment [16] concerns the target HIV-1 Env of strain 1054_07_TC4_1499 (HIV-1).
Experiment [17] addresses HIV-1 strain Ce703010054_2A2 envelope (gp120) (HIV-1).
Experiment [18] has as its target HIV-1 strain Ce0682_E4 envelope (gp120) (HIV-1).
The target in experiment [19] is HIV-1 strain TRO.11 envelope (gp120) (HIV-1).
In experiment [20] the target is HIV-1 Env of strain 263-8 (HIV-1).
Experiment [21] addresses HIV-1 Env of strain 6041.v3.c23 (HIV-1).
Experiment [22] concerns the target HIV-1 Env of strain CNE8 (HIV-1).
In experiment [23] the target is HIV-1 Env of strain BJOX028000.10.3 (HIV-1).
Experiment [24] has as its target HIV-1 Env of strain 6244_13_B5_4576 (HIV-1).
Experiment [25] concerns the target HIV-1 Env of strain CNE19 (HIV-1).

Read-outs that look alike come from different tables or passages of the source.

B1: NIH45-46^G54Y IgG (antibody, name in Kabat numbering, V domains shown)
VH: QVRLSQSGGQMKKPGESMRLSCRASGYEFLNCPINWIRLAPGRRPEWMGWLKPRYGAVNYARKFQGRVTMTRDVYSDTAFLELRSLTSDDTAVYFCTRGKYCTARDYYNWDFEHWGRGAPVTVSS
VL: EIVLTQSPATLSLSPGETAIISCRTSQSGSLAWYQQRPGQAPRLVIYSGSTRAAGIPDRFSGSRWGADYNLSISNLESGDFGVYYCQQYEFFGQGTKVQVDI
With B1, the neutralization IC50 in experiment [1] is 45 µg/mL; in [2], 0.06 µg/mL; in experiment [3], 0.1 µg/mL; in experiment [4], greater than 50 µg/mL; in experiment [5] it was 0.4 µg/mL; in [8], 0.04 µg/mL. The neutralization IC50 turned out to be 0.04 µg/mL in experiment [9], 0.023 µg/mL in experiment [10], 0.19 µg/mL in [12] and 0.064 µg/mL in experiment [16]. Also, the neutralization IC80 in [6] was greater than 50 µg/mL; in experiment [7] it was 0.189 µg/mL; in experiment [11], greater than 50 µg/mL; in experiment [13], 0.052 µg/mL; in experiment [14], greater than 50 µg/mL; in experiment [15], 0.174 µg/mL. The neutralization IC80 in experiment [17] is 0.07 µg/mL; in experiment [18], 0.065 µg/mL; in experiment [19] it was 0.22 µg/mL.

B2: NIH45-46^G54W IgG (antibody, name in Kabat numbering, V domains shown)
VH: QVRLSQSGGQMKKPGESMRLSCRASGYEFLNCPINWIRLAPGRRPEWMGWLKPRWGAVNYARKFQGRVTMTRDVYSDTAFLELRSLTSDDTAVYFCTRGKYCTARDYYNWDFEHWGRGAPVTVSS
VL: EIVLTQSPATLSLSPGETAIISCRTSQSGSLAWYQQRPGQAPRLVIYSGSTRAAGIPDRFSGSRWGADYNLSISNLESGDFGVYYCQQYEFFGQGTKVQVDI
As for B2, the neutralization IC50 is 6.6 µg/mL in experiment [1]; 0.03 µg/mL in experiment [2]; 0.09 µg/mL in experiment [3]; 41 µg/mL in experiment [4]; 0.2 µg/mL in experiment [5]; 0.02 µg/mL in experiment [8]. In addition, the neutralization IC50 in experiment [9] is less than 0.001 µg/mL; in [10] it was 0.009 µg/mL; in experiment [12] it was 0.13 µg/mL; in experiment [16], 0.04 µg/mL. The neutralization IC80 is greater than 50 µg/mL in [6]; 0.16 µg/mL in experiment [7]; greater than 50 µg/mL in [11]; 0.028 µg/mL in experiment [13]; greater than 50 µg/mL in [14]; 0.099 µg/mL in experiment [15]. Further, the neutralization IC80 is 0.077 µg/mL in experiment [17], 0.039 µg/mL in [18] and 0.13 µg/mL in [19]. For the same molecule, the improvement of neutralization potency over NIH45-46 in [9] is greater than 700 fold.

B3: NIH45-46^G54W(HC), S28Y(LC) (antibody, V domains shown)
VH: QVRLSQSGGQMKKPGESMRLSCRASGYEFLNCPINWIRLAPGRRPEWMGWLKPRWGAVNYARKFQGRVTMTRDVYSDTAFLELRSLTSDDTAVYFCTRGKYCTARDYYNWDFEHWGRGAPVTVSS
VL: EIVLTQSPATLSLSPGETAIISCRTSQYGSLAWYQQRPGQAPRLVIYSGSTRAAGIPDRFSGSRWGADYNLSISNLESGDFGVYYCQQYEFFGQGTKVQVDI
Take B3: the IC50, pseudovirus neutralization in experiment [20] worked out at 0.018 µg/mL; in [8], 0.024 µg/mL; in experiment [9] it was 0.013 µg/mL; in experiment [10], 0.034 µg/mL; in experiment [21], 0.001 µg/mL; in experiment [22], 0.038 µg/mL. The IC50, pseudovirus neutralization in experiment [12] amounted to 0.118 µg/mL; in experiment [23], 0.001 µg/mL; in experiment [24] it was 0.03 µg/mL; in experiment [25] it was 0.022 µg/mL; in experiment [16], 0.104 µg/mL.

B4: NIH45-46^G54F IgG (antibody, name in Kabat numbering, V domains shown)
VH: QVRLSQSGGQMKKPGESMRLSCRASGYEFLNCPINWIRLAPGRRPEWMGWLKPRFGAVNYARKFQGRVTMTRDVYSDTAFLELRSLTSDDTAVYFCTRGKYCTARDYYNWDFEHWGRGAPVTVSS
VL: EIVLTQSPATLSLSPGETAIISCRTSQSGSLAWYQQRPGQAPRLVIYSGSTRAAGIPDRFSGSRWGADYNLSISNLESGDFGVYYCQQYEFFGQGTKVQVDI
On to B4, for which the neutralization IC50 in experiment [1] was greater than 50 µg/mL; in [2], 0.02 µg/mL; in experiment [3], 0.08 µg/mL; in [4], greater than 50 µg/mL; in experiment [5] it was 0.3 µg/mL; in experiment [8], 0.04 µg/mL. Also, the neutralization IC50 came out at 0.03 µg/mL in [9], 0.03 µg/mL in [10], 0.24 µg/mL in experiment [12] and 0.076 µg/mL in experiment [16]. The neutralization IC80 in experiment [6] is greater than 50 µg/mL; in [7], 0.283 µg/mL; in [11], greater than 50 µg/mL; in [13] it was 0.059 µg/mL; in [14], greater than 50 µg/mL; in experiment [15], 0.198 µg/mL. Besides, the values for the neutralization IC80 in experiment [17], in experiment [18] and in [19] were 0.07 µg/mL, 0.056 µg/mL and 0.3 µg/mL, respectively.

The values are drawn from patent US20130209454A1.
